Results taken from the supplement of paper PMC9170038.

System: MS2 coat protein
Experiment: apparent KD of MS2 coat protein; designed switch direction (-1 OFF switch, 1 ON switch): 1; higher = weaker reporter binding
Outline: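 The apparent KD reported per design is the median over clusters of curve fits to normalised cluster fluorescence. The RNA switches were transcribed on Illumina chips by stalled E. coli RNA polymerase. SNAP-549-labelled MS2 coat protein was titrated from 0.7 or 1.5 nM, doubling up to 3 µM, in Tris-HCl pH 7.5 buffer containing KCl, MgCl2, BSA, DTT, tRNA and Tween-20, with no input, 200 uM small-molecule ligand, or an oligonucleotide input.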

[1] = input ligand: microRNA oligo, concentration not stated
[2] = Eterna round: R95, input ligand: FMN 200 uM
[3] = Eterna round: R95, input ligand: microRNA oligo, concentration not stated
[4] = Eterna round: R95, input ligand: none

UUGAAGAACAUAGGAUAUUGAAUACAUAUGUUUAACAUGAGGAUCACCCAUGUGGGUUGCGGUAUCGAGAAGGAUGAAUAAAAG [Mat - Same State NG 2 - JL mod - D15] (Eterna round: R96, puzzle: Same State NG 2)
apparent KD of MS2 coat protein (input ligand: FMN 200 uM): 328 nM | apparent KD of MS2 coat protein [1]: 259 nM | apparent KD of MS2 coat protein (input ligand: none): 256 nM

AAUUUAAUACAUGAGGAUCACCCAUGUAAAUUAAUUAAGAUCAAGGAUAUCAGCUCGUUUAGAGCUGAGAAGGUGAUCACAUGU [SSNG3/19-A3] (Eterna round: R96, puzzle: Same State NG 3)
apparent KD of MS2 coat protein [1]: 163 nM

UAACAACAUAUAGAACAAGCGUGCUCGUCACAUGAGGAUCACCCAUGUCUAAGCGCUGUACCUACAUCCUCAGCGCC [Raononbeen] (puzzle: Sensor for hsa-mir-208a)
apparent KD of MS2 coat protein [2]: 105 nM | apparent KD of MS2 coat protein [3]: 29.2 nM | apparent KD of MS2 coat protein [4]: 96.4 nM

UUUGGGUGGCUGGAGGAUAUCCUGGUUGUUACAUGAGGAUCACCCAUGUGCCGCGCGGUUCGCGAGGAGAAGGCUGGCGGCCGUU (puzzle: Same State 2)
apparent KD of MS2 coat protein [3]: 91.2 nM

GUUAAACAUGAGGAUCACCCAUGUAAUAUAAUGGGAGGAUAUCUGAAUUAAUUAAAUUAAGGAGAAGGCCUAUAUG [Mat - Same State 1 - Mod of Eli - D53] (puzzle: Same State 1)
apparent KD of MS2 coat protein [2]: 36.6 nM | apparent KD of MS2 coat protein [3]: 210 nM | apparent KD of MS2 coat protein [4]: 271 nM

GGAGCCAAGGCAGGAUAUUCAUAUUAAUAAACAUGAGGAUCACCCAUGUAGGCCAGAAGGCCUUGGGAGAAGGGCCAUGGCUCG [Xeonanis - 13 mod5] (Eterna round: R96, puzzle: Same State NG 2)
apparent KD of MS2 coat protein (input ligand: FMN 200 uM): 21.3 nM | apparent KD of MS2 coat protein [1]: 120 nM | apparent KD of MS2 coat protein (input ligand: none): 196 nM

CGUUCUUACUCGGUACGGUGAGUAGAGGAACAUGAGGAUCACCCAUGUUUGAGCUUUUUGCUCGUGAUUAACAGUUG [JR_SHM208a_Sub015] (puzzle: Sensor for hsa-mir-208a)
apparent KD of MS2 coat protein [2]: 92.2 nM | apparent KD of MS2 coat protein [3]: 102 nM | apparent KD of MS2 coat protein [4]: 149 nM

AGGAUAACACAUGAGGAUCACCCAUGUAUUAUUAUUACAAGCUUUUUGCUCGUUUUUAAUAAUACAUGUGUUAUUUU [Default title] (puzzle: Sensor for hsa-mir-208a version 2)
apparent KD of MS2 coat protein [2]: 88.2 nM | apparent KD of MS2 coat protein [3]: 88.7 nM | apparent KD of MS2 coat protein [4]: 133 nM

GUACGUGCAACGUAGGAUAUCCACGACACGACAUGAGGAUCACCCAUGUCAAGGCUUAAAAGUCGGGAGAAGGGCGAACCACGGA [Xereenge] (puzzle: Same State 2)
apparent KD of MS2 coat protein [2]: 14.5 nM | apparent KD of MS2 coat protein [3]: 15.9 nM | apparent KD of MS2 coat protein [4]: 19.2 nM

GUGACCUCCCUAGGAUAUCGCCAAAUGUGAUGUCGACAUGAGGAUCACCCAUGUAUAGUCACGAACGAGAAGGAGGGUGUGGCA [Cesodi] (Eterna round: R96, puzzle: Same State NG 2)
apparent KD of MS2 coat protein (input ligand: FMN 200 uM): 15.6 nM | apparent KD of MS2 coat protein [1]: 17.5 nM | apparent KD of MS2 coat protein (input ligand: none): 19.4 nM

GCUACCAAUGAAGCCAACAUGAGGAUCACCCAUGUAUGUUGGUAGGAUAUCGUUUGCAAAGCAAACGAGAAGGGCUAAGGUAGC [Mat - Same State NG 3 - JL Mod - D75] (Eterna round: R96, puzzle: Same State NG 3)
apparent KD of MS2 coat protein (input ligand: FMN 200 uM): 62.8 nM | apparent KD of MS2 coat protein [1]: 36.8 nM | apparent KD of MS2 coat protein (input ligand: none): 51 nM

GUGGUCAGACAUGAGGAUCACCCAUGUGGAAUAAAUAAGGGAGAGGAUAUUUAAUAUAGGAUAUAAAAGAAGGCUCGGUUGGUG (Eterna round: R96, puzzle: Same State NG 3)
apparent KD of MS2 coat protein (input ligand: FMN 200 uM): 86.3 nM | apparent KD of MS2 coat protein [1]: 113 nM | apparent KD of MS2 coat protein (input ligand: none): 115 nM

GGCACAAAAGCACAGGAUAUGCAAAAGAACACAUGAGGAUCACCCAUGUAGCCAAAUAACGGGCAGCAGAAGGGUGGGACUGCCA [Ceridi] (puzzle: Same State 2)
apparent KD of MS2 coat protein [2]: 78.2 nM | apparent KD of MS2 coat protein [3]: 693 nM | apparent KD of MS2 coat protein [4]: 485 nM

UGCCAUAGUAUAUUGGUACGUGCUUUUUGACAUGAGGAUCACCCAUGUCCUCGUCAUAUGCGCAGUCCGUAGACUGC (puzzle: Sensor for hsa-mir-208a)
apparent KD of MS2 coat protein [2]: 328 nM | apparent KD of MS2 coat protein [3]: 234 nM | apparent KD of MS2 coat protein [4]: 374 nM

AGAGCCGGCACUGAGGAUAUUCAUAUUAAAACAUGAGGAUCACCCAUGUAGGCCAGAAGGCCUUGGGAGAAGGCAGGUCGGCUCU [Mat - Same State 2 - Mod of UCT - D61] (puzzle: Same State 2)
apparent KD of MS2 coat protein [2]: 22.3 nM | apparent KD of MS2 coat protein [3]: 211 nM | apparent KD of MS2 coat protein [4]: 507 nM

GAGCCAGUCCGAGGAUAUUCAUAUUAACACAUGAGGAUCACCCAUGUAGGCUCAGAAGAGCCCUGGGAGAAGGCGGACUGGCUC [SS-NG2-LRO15] (Eterna round: R96, puzzle: Same State NG 2)
apparent KD of MS2 coat protein (input ligand: FMN 200 uM): 85.5 nM | apparent KD of MS2 coat protein [1]: 455 nM | apparent KD of MS2 coat protein (input ligand: none): 1100 nM

CCGUCGGAGGUAGGAUAUGGAGCCUUAUUGGCUCCAGAAGGAUCAAAUAAAUUAACAAACAUGAGGAUCACCCAUGUCCGACGG [Eli NG1ss - 86] (Eterna round: R96, puzzle: Same State NG 1)
apparent KD of MS2 coat protein (input ligand: FMN 200 uM): 156 nM | apparent KD of MS2 coat protein [1]: 331 nM | apparent KD of MS2 coat protein (input ligand: none): 558 nM

GUGCGGGUGCCACAGGAUAUACGUGGAUCGACAUGAGGAUCACCCAUGUAUAUCCUAAUAAUUGCGUAGAAGGGUGGUCAGCCGU [Enbebiqu] (Eterna round: R96, puzzle: Same State 2)
apparent KD of MS2 coat protein (input ligand: FMN 200 uM): 144 nM | apparent KD of MS2 coat protein [1]: 196 nM

GGCGAACAGGCUAACAUGAGGAUCACCCAUGUGGACUUCGUGUAGGAUAUCGGGAAGGAGGAAACCGAGAAGGGCAAAGAAGCC [AK SSNG3-V2-49] (Eterna round: R96, puzzle: Same State NG 3)
apparent KD of MS2 coat protein (input ligand: FMN 200 uM): 195 nM | apparent KD of MS2 coat protein [1]: 88.2 nM | apparent KD of MS2 coat protein (input ligand: none): 93.7 nM

AAAAAACAUGAGGAUCACCCAUGUAAAAAAAUGGGAGGAUAUACAAAAACGAAAGUCAAAGUAGAAGGCCUGAAAA [same state 5] (Eterna round: R96, puzzle: Same State 1)
apparent KD of MS2 coat protein [1]: 78.6 nM

AUCAAUCUAUCUCAGGAUAUCAUGUCAAAGACAUGAGGAUCACCCAUGUACCAGGAAACUGGUUAUGAGAAGGGAGAUAGAUUGA [Mat - Same State 2 - Mod - D30] (puzzle: Same State 2)
apparent KD of MS2 coat protein [2]: 56.2 nM | apparent KD of MS2 coat protein [3]: 158 nM | apparent KD of MS2 coat protein [4]: 53.2 nM

AAGCUGUGUGUAUGGUCAUUGUCAACGGUACAUGAGGAUCACCCAUGUAGCAUUAACCAUCCGACUCUGUUGGAGGU [high scoring solution 6] (Eterna round: R96, puzzle: Sensor for hsa-mir-208a)
apparent KD of MS2 coat protein (input ligand: FMN 200 uM): 58.7 nM | apparent KD of MS2 coat protein [1]: 40.7 nM | apparent KD of MS2 coat protein (input ligand: none): 51.7 nM

GAAAAACAUGAGGAUCACCCAUGUGAGAAUAUGGGAGGAUAUUCAAAGACGAAAGUCAAAGAAGAAGGCCUAAAAG [Mat - Same State 1 - Eli mod - 37] (Eterna round: R96, puzzle: Same State 1)
apparent KD of MS2 coat protein (input ligand: FMN 200 uM): 33.4 nM | apparent KD of MS2 coat protein [1]: 143 nM | apparent KD of MS2 coat protein (input ligand: none): 211 nM

AGUCCAGCCUGAGCUGGACAAAAGCAUGUACAUGAGGAUCACCCAUGUCAUGUACAAGCUUUUUGCUCGUUUUAAAA [Zipper 46 - 13] (Eterna round: R96, puzzle: Sensor for hsa-mir-208a)
apparent KD of MS2 coat protein (input ligand: FMN 200 uM): 633 nM | apparent KD of MS2 coat protein [1]: 12.9 nM | apparent KD of MS2 coat protein (input ligand: none): 611 nM

AAAGACAUGGUGCAGGAUAUAUUAAUAGUCACAUGAGGAUCACCCAUGUUCAGAUAUCUGAACGAGUAGAAGGGCGAUGAAAAAA [SameState2 Malc#5] (Eterna round: R96, puzzle: Same State 2)
apparent KD of MS2 coat protein (input ligand: FMN 200 uM): 530 nM | apparent KD of MS2 coat protein [1]: 28.7 nM | apparent KD of MS2 coat protein (input ligand: none): 204 nM

AUGGAGACCGGAGGAUAUGGACCAACAAUCGGUCCAGAAGGCUGCCCAUGGUAUACAUGAGGAUCACCCAUGUGGCCGCGGAGA [Eternabot solution 13] (Eterna round: R96, puzzle: Same State NG 1)
apparent KD of MS2 coat protein (input ligand: FMN 200 uM): 65.8 nM | apparent KD of MS2 coat protein [1]: 69.2 nM | apparent KD of MS2 coat protein (input ligand: none): 102 nM

UGGCUCAGAGCAGGAUAUAUGUCUCGAGCUUCGGCUCGAGACAUGAGGAUCACCCAUGUAAUAACAUAGAAGGGCUCUGAGCCA [SSNG2/1-B2] (Eterna round: R96, puzzle: Same State NG 2)
apparent KD of MS2 coat protein (input ligand: FMN 200 uM): 16.3 nM | apparent KD of MS2 coat protein [1]: 41.7 nM | apparent KD of MS2 coat protein (input ligand: none): 74.7 nM

GGUACACAUGAGGAUCACCCAUGUCGUAUGACAUGAGGAUAUGUACAGACUUCGGUCUGUACAGAAGGCAUGUGUC [SS1 - 1011 Omei Mod 4] (puzzle: Same State 1)
apparent KD of MS2 coat protein [3]: 24.5 nM

AACAAUCUAUCUGAGGAUAUCUUGAAAUAAACAUGAGGAUCACCCAUGUGCAGGAAAACUGCAUAUGAGAAGGCAGAUAGAUUGA [salish99_ss2_r3_028] (puzzle: Same State 2)
apparent KD of MS2 coat protein [2]: 14.5 nM | apparent KD of MS2 coat protein [3]: 124 nM | apparent KD of MS2 coat protein [4]: 148 nM

ACAUGAGACUUAGGAUAUGUUGUACCUACAUGUGACAUGAGGAUCACCCAUGUGGUAAGUAUGACACAGAAGGAAGAGAUAUGU [Equivalance 67 - Jieux - Same State NG 2] (Eterna round: R96, puzzle: Same State NG 2)
apparent KD of MS2 coat protein [1]: 18.9 nM

UUCUCACUGGUAGGAUAUGUAGGAUAUGUACAUGAGGAUCACCCAUGUCAGUUAAUGACAGAAGGAUAGAAGGACCACAUCUCU [pwkr ssNG2 2FMN 1F5s.1] (Eterna round: R96, puzzle: Same State NG 2)
apparent KD of MS2 coat protein (input ligand: FMN 200 uM): 198 nM | apparent KD of MS2 coat protein [1]: 139 nM | apparent KD of MS2 coat protein (input ligand: none): 146 nM

UUAUAACAUGAGGAUCACCCAUGUCAACAAAGUCGAGGAUAUGGGCAAUUAUUAUAAGAACCAGAAGGCGAAUAUU [Mat - Same State 1 - Mod of UCT - D32] (puzzle: Same State 1)
apparent KD of MS2 coat protein [2]: 35.5 nM | apparent KD of MS2 coat protein [3]: 342 nM | apparent KD of MS2 coat protein [4]: 230 nM
